Experimental data as given in US20100261778.

Target: p53 wild-type (UniProt P04637)
Assay: cell_activity
Details: dual luciferase activation in H1299 (p53 null)

Chain of p53 wild-type (P04637 whole entry): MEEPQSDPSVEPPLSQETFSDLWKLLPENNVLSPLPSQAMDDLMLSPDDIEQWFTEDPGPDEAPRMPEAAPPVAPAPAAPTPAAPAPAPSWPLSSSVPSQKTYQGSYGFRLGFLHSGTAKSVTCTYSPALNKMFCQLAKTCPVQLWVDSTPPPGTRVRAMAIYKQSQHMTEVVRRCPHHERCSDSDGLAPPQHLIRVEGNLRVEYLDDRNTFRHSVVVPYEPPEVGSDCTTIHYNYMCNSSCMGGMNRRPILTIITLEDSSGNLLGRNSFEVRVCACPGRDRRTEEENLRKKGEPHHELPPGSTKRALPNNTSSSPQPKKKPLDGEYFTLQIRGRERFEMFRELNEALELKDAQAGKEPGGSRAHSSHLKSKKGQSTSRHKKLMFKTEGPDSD

killin promoter 140 bp fragment with p53 site (pGL3-Killin)
activity: 70 fold
